{"source": "patent US8192734B2", "about": "“Compositions and methods for bone strengthening” (Cornell University, priority 2007, dated 2012)", "key": {"[1]": {"system": "pigs fed P-adequate corn-soybean meal basal diet", "assay": "Expt 1: metatarsal mineral concentrations (ICP)", "type": "in vivo, pig"}, "[2]": {"system": "weanling pigs fed high P diet", "assay": "Examples 4-8: cortical and cancellous bone ash and mineral profile", "type": "in vivo, pig", "details": "8 wk", "method": "As in Examples 1-3, the animal protocol was approved by Cornell Animal Care and Use Committee. An 8-week feeding trial was conducted at Cornell University Swine Research Farm. Thirty weanling pigs (Yorkshire×Hampshire×Landrace, body weight=8.6±0.5 kg) were allocated into three groups (n=10). […] were fed a corn-soy basal diet (BD)+0.25% inorganic phosphorus (iP, dicalcium phosphate). Group 2 were fed BD+0.35% iP. Group 3 were fed BD+0.35% iP+3,400 units of phytase/kg (Escherichia coli appA2, OptiPhos, JBS United, Inc., Sheridan, Ind.). The BD (Table 7) contained adequate levels of all nutrients except for P^(63), and 0.25% iP is the supplementation level recommended by NRC^(24) to meet the P needs of this age of pigs. […] Pigs were housed in an environmentally-controlled barn (20-25° C.; 12-light: 12-dark cycle), and given free access to feed and water.\nAfter the above mechanical tests, midshaft sections of both femur and metacarpus were cut and washed with de-ionized water. The cortical thickness of both bones was measured by slide caliper in the midshaft. Cortical and cancellous bones were separated for total ash and mineral analysis. A 3-cm long and 3-mm thick midshaft of femur and 1-cm long and 1.5-mm thick midshaft of metacarpus were used for cortical ash analysis. For cancellous bone, sponge-like bone from 3-cm below the growth plate of femur and 1.5-cm below the growth plate of metacarpus were collected. For ash analysis, bones were oven-dried at 110° C. for 24 h, and incinerated in a muffle furnace at 550° C. for 96 h. Concentrations of individual elements in the ash were measured using inductively coupled argon plasma spectrophotometer (ICAP 61E Trace Analyzer, Thermo Jarell Ash corporation, Franklin, Mass.)^(63), and were expressed on ash basis."}, "[3]": {"details": "Expt 2, plasma, phytase 2000 U/kg and/or Sr 50 mg/kg", "quoted_text": "Pigs were penned in an environmentally controlled barn (20-25° C.; 12 h light: 12 h dark cycle), and were allowed free access to feed and water.\nBlood samples of individual pigs were collected at initial (wk 0) and then weekly from the anterior vena cava into heparinized tubes after an overnight fast (8 h). The collected whole blood samples were chilled on ice and centrifuged at 3,000×g (GS-6KR centrifuge, Beckman Instruments Inc.) for 10 min at 4° C. to prepare plasma for assays of inorganic P concentrations and alkaline phosphatase activity.\nThe hydrolysis of p-nitrophenol phosphate to p-nitrophenol was used to measure plasma alkaline phosphatase activity^(27). The enzyme unit was defined as 1 μmol of p-nitrophenol released per minute at 30° C."}, "[4]": {"details": "0.35% iP + Sr 50 mg/kg + phytase 3,400 U/kg, P<0.01"}}, "note": "Where two headings read alike, the source gives them in different places. Marks after values point to notes of the source that are not given here.", "data": [{"molecule": "Phytase: Escherichia coli AppA2 phytase (OptiPhos, JBS United, Inc.), added to diets at feed mixing; AppA2 is SEQ ID NO: 2 (protein, listed as Escherichia coli) MKAILIPFLSLLIPLTPQSAFAQSEPELKLESVVIVSRHGVRAPTKATQLMQDVTPDAWPTWPVKLGWLTPRGGELIAYLGHYQRQRLVADGLLAKKGCPQPGQVAIIADVDERTRKTGEAFAAGLAPDCAITVHTQADTSSPDPLFNPLKTGVCQLDNANVTDAILSRAGGSIADFTGHRQTAFRELERVLNFSQLNLCLNREKQDESCSLTQALPSELKVSADNVSLTGAVSLASMLTEIFLLQQAQGMPEPGWGRITDSHQWNTLLSLHNAQFYLLQRTPEVARSRATPLLDLIMAALTPHPPQKQAYGVTLPTSVLFIAGHDTNLANLGGALELNWTLPGQPDNTPPGGELVFERWRRLSDNSQWIQVSLVFQTLQQMRDKTPLSLNTPPGEVKLTLAGCEERNAQGMCSLAGFTQIVNEARIPACSL", "values": [{"measurement": "higher Sr concentration in metatarsals vs BD", "setting": "[1]; BD + phytase 2,000 U/kg, 6 wk, P<0.05", "result": 7, "unit": "%"}, {"measurement": "metatarsal Ca concentration", "setting": "[1]; phytase 2000 U/kg, n=8", "result": 217.3, "unit": "g/kg"}, {"measurement": "metatarsal Cr concentration", "setting": "[1]; phytase 2000 U/kg, n=8", "result": 6.4, "unit": "mg/kg"}, {"measurement": "metatarsal Fe concentration", "setting": "[1]; phytase 2000 U/kg, n=8", "result": 15.7, "unit": "mg/kg"}, {"measurement": "metatarsal Mg concentration", "setting": "[1]; phytase 2000 U/kg, n=8", "result": 3.6, "unit": "g/kg"}, {"measurement": "metatarsal Mn concentration", "setting": "[1]; phytase 2000 U/kg, n=8", "result": 1.1, "unit": "mg/kg"}, {"measurement": "metatarsal Na concentration", "setting": "[1]; phytase 2000 U/kg, n=8", "result": 6.2, "unit": "g/kg"}, {"measurement": "metatarsal P concentration", "setting": "[1]; phytase 2000 U/kg, n=8", "result": 109.2, "unit": "g/kg"}, {"measurement": "metatarsal S concentration", "setting": "[1]; phytase 2000 U/kg, n=8", "result": 1.2, "unit": "g/kg"}, {"measurement": "metatarsal Sr concentration", "setting": "[1]; phytase 2000 U/kg, n=8", "result": 62.8, "unit": "mg/kg"}, {"measurement": "metatarsal Zn concentration", "setting": "[1]; phytase 2000 U/kg, n=8", "result": 176.1, "unit": "mg/kg"}, {"measurement": "decrease of P concentration in cancellous bones, femur and metacarpus", "setting": "[2]; 0.35% iP + Sr 50 mg/kg + phytase 3,400 U/kg", "result": "22 to 31", "unit": "%"}, {"measurement": "elevation of Sr concentration in cancellous bone, metacarpus", "setting": "[2]; 0.35% iP + Sr 50 mg/kg + phytase 3,400 U/kg, P<0.002", "result": 115, "unit": "fold"}, {"measurement": "enhancement of cancellous bone ash of femur", "setting": "[2]; [4]", "result": 12, "unit": "%"}, {"measurement": "enhancement of cancellous bone ash of metacarpus", "setting": "[2]; [4]", "result": 5, "unit": "%"}, {"measurement": "increase of total ash concentration of cortical bone, metacarpals", "setting": "[2]; [4]", "result": 3, "unit": "%"}, {"measurement": "increase in Fe concentration of cancellous bone, femur", "setting": "[2]; 0.35% iP + Sr 50 mg/kg + phytase 3,400 U/kg, P<0.05", "result": 33, "unit": "%"}, {"measurement": "Femur cancellous bone Ca", "setting": "[2]; 0.35% iP + phytase 3400 U, n=5", "result": "311.0^b g/Kg ash"}, {"measurement": "Femur cancellous bone Cr", "setting": "[2]; 0.35% iP + phytase 3400 U, n=5", "result": 10.0, "unit": "mg/kg ash"}, {"measurement": "Femur cancellous bone Fe", "setting": "[2]; 0.35% iP + phytase 3400 U, n=5", "result": "75.6^a mg/kg ash"}, {"measurement": "Femur cancellous bone Mg", "setting": "[2]; 0.35% iP + phytase 3400 U, n=5", "result": "6.0^b g/Kg ash"}, {"measurement": "Femur cancellous bone Na", "setting": "[2]; 0.35% iP + phytase 3400 U, n=5", "result": "8.3^b g/Kg ash"}, {"measurement": "Femur cancellous bone P", "setting": "[2]; 0.35% iP + phytase 3400 U, n=5", "result": "155.0^b g/Kg ash"}, {"measurement": "Femur cancellous bone S", "setting": "[2]; 0.35% iP + phytase 3400 U, n=5", "result": "1833.2^b mg/kg ash"}, {"measurement": "Femur cancellous bone Sr", "setting": "[2]; 0.35% iP + phytase 3400 U, n=5", "result": "93680.7^a mg/kg ash"}, {"measurement": "Femur cancellous bone Zn", "setting": "[2]; 0.35% iP + phytase 3400 U, n=5", "result": "395.7^a mg/kg ash"}, {"measurement": "Femur compact bone Ca", "setting": "[2]; 0.35% iP + phytase 3400 U, n=5", "result": 403.0, "unit": "g/Kg ash"}, {"measurement": "Femur compact bone Cr", "setting": "[2]; 0.35% iP + phytase 3400 U, n=5", "result": 12.6, "unit": "mg/kg ash"}, {"measurement": "Femur compact bone Fe", "setting": "[2]; 0.35% iP + phytase 3400 U, n=5", "result": 25.1, "unit": "mg/kg ash"}, {"measurement": "Femur compact bone Mg", "setting": "[2]; 0.35% iP + phytase 3400 U, n=5", "result": 7.6, "unit": "g/Kg ash"}, {"measurement": "Femur compact bone Na", "setting": "[2]; 0.35% iP + phytase 3400 U, n=5", "result": 9.4, "unit": "g/Kg ash"}, {"measurement": "Femur compact bone P", "setting": "[2]; 0.35% iP + phytase 3400 U, n=5", "result": 199.0, "unit": "g/Kg ash"}, {"measurement": "Femur compact bone S", "setting": "[2]; 0.35% iP + phytase 3400 U, n=5", "result": "649.9^b mg/kg ash"}, {"measurement": "Femur compact bone Sr", "setting": "[2]; 0.35% iP + phytase 3400 U, n=5", "result": "568.8^b mg/kg ash"}, {"measurement": "Femur compact bone Zn", "setting": "[2]; 0.35% iP + phytase 3400 U, n=5", "result": 278.8, "unit": "mg/kg ash"}, {"measurement": "Metacarpus cancellous bone Ca", "setting": "[2]; 0.35% iP + phytase 3400 U, n=5", "result": "329.0^b g/kg ash"}, {"measurement": "Metacarpus cancellous bone Cr", "setting": "[2]; 0.35% iP + phytase 3400 U, n=5", "result": 10.7, "unit": "mg/kg ash"}, {"measurement": "Metacarpus cancellous bone Fe", "setting": "[2]; 0.35% iP + phytase 3400 U, n=5", "result": "66.4^a mg/kg ash"}, {"measurement": "Metacarpus cancellous bone Mg", "setting": "[2]; 0.35% iP + phytase 3400 U, n=5", "result": 6.0, "unit": "g/kg ash"}, {"measurement": "Metacarpus cancellous bone Na", "setting": "[2]; 0.35% iP + phytase 3400 U, n=5", "result": "7.6^b g/kg ash"}, {"measurement": "Metacarpus cancellous bone P", "setting": "[2]; 0.35% iP + phytase 3400 U, n=5", "result": "161.0^b g/kg ash"}, {"measurement": "Metacarpus cancellous bone S", "setting": "[2]; 0.35% iP + phytase 3400 U, n=5", "result": "1334.5^b mg/kg ash"}, {"measurement": "Metacarpus cancellous bone Sr", "setting": "[2]; 0.35% iP + phytase 3400 U, n=5", "result": "86221.0^a mg/kg ash"}, {"measurement": "Metacarpus cancellous bone Zn", "setting": "[2]; 0.35% iP + phytase 3400 U, n=5", "result": 334.3, "unit": "mg/kg ash"}, {"measurement": "Metacarpus compact bone Ca", "setting": "[2]; 0.35% iP + phytase 3400 U, n=5", "result": 398.0, "unit": "g/Kg ash"}, {"measurement": "Metacarpus compact bone Cr", "setting": "[2]; 0.35% iP + phytase 3400 U, n=5", "result": 13.3, "unit": "mg/kg ash"}, {"measurement": "Metacarpus compact bone Fe", "setting": "[2]; 0.35% iP + phytase 3400 U, n=5", "result": 24.7, "unit": "mg/kg ash"}, {"measurement": "Metacarpus compact bone Mg", "setting": "[2]; 0.35% iP + phytase 3400 U, n=5", "result": 7.2, "unit": "g/Kg ash"}, {"measurement": "Metacarpus compact bone Na", "setting": "[2]; 0.35% iP + phytase 3400 U, n=5", "result": 8.6, "unit": "g/Kg ash"}, {"measurement": "Metacarpus compact bone P", "setting": "[2]; 0.35% iP + phytase 3400 U, n=5", "result": 195.0, "unit": "g/Kg ash"}, {"measurement": "Metacarpus compact bone S", "setting": "[2]; 0.35% iP + phytase 3400 U, n=5", "result": "763.8^b mg/kg ash"}, {"measurement": "Metacarpus compact bone Sr", "setting": "[2]; 0.35% iP + phytase 3400 U, n=5", "result": "541.4^b mg/kg ash"}, {"measurement": "Metacarpus compact bone Zn", "setting": "[2]; 0.35% iP + phytase 3400 U, n=5", "result": 307.7, "unit": "mg/kg ash"}, {"measurement": "increases in Sr concentration in cancellous bones of femur and metacarpus vs 0.35% iP", "setting": "[2]; phytase 3,400 U/kg into the 0.35% iP diet", "result": "> 100", "unit": "fold"}, {"measurement": "Alkaline phosphatase activity", "setting": "[3]; week 0 (initial)", "result": 202.1, "unit": "U/L"}, {"measurement": "Alkaline phosphatase activity", "setting": "[3]; week 5 (final)", "result": 149.9, "unit": "U/L"}]}]}
